The text below walks through data of patent publication US20080260789A1.

In experiment [1] the target is α-subunit of the P. americana high conductance calcium-activated potassium channel (pSlo) (Periplaneta americana). Nature of the experiment: cell-based or functional assay.
Experiment [2] deals with Cav channels of P. americana DUM neurons (Periplaneta americana). Nature of the experiment: cell-based or functional assay.

Regarding rU-ACTX-Hv1a (peptide), the IC50 of block of pSlo currents in HEK293 cells, whole-cell patch clamp in experiment [1] stood at 0.579 µM. Besides, the IC50 of block of Cav currents in DUM neurons, whole-cell patch clamp in experiment [2] was 409 nM.
